Ratio to parent data for one variant are collected here from PMC13462943.

The labels stand for the following.
B1: GLP methyltransferase domain (aa 1001-1266), wild type [human] / itself (parent)
chain: DRPSPVERIVSRDIARGYERIPIPCVNAVDSEPCPSNYKYVSQNCVTSPMNIDRNITHLQYCVCIDDCSSSNCMCGQLSMRCWYDKDGRLLPEFNMAEPPLIFECNHACSCWRNCRNRVVQNGLRARLQLYRTRDMGWGVRSLQDIPPGTFVCEYVGELISDSEADVREEDSYLFDLDNKDGEVYCIDARFYGNVSRFINHHCEPNLVPVRVFMAHQDLRFPRIAFFSTRLIEAGEQLGFDYGERFWDIKGKLFSCRCGSPKCRHS

Variants of B1 are the subject of this experiment. Put plainly: native mass spectrometry (nESI-MS). Conditions: with itself; parent: 1; read off a plot.
Turning to chain 1 C73Y, the ratio to parent is 0.34.
